Test results reported in US7658917 (PRAECIS PHARMACEUTICALS, dated 2010).
Numbered stars: 1 amine (or outer) side, 2 acyl side, 3 side chain; on linkers, the order of the positions; unused ones are H or OH. Square brackets hold non-standard residues; d marks the D form. Ends that are not written are not given here. * marks the point of attachment. Cholyl = C[C@H](CCC(=O)*)[C@H]1CC[C@H]2[C@@H]3[C@H](O)C[C@@H]4C[C@H](O)CC[C@]4(C)[C@H]3C[C@H](O)[C@]12C; Deoxycholoyl = C[C@H](CCC(=O)*)[C@H]1CC[C@H]2[C@@H]3CC[C@@H]4C[C@H](O)CC[C@]4(C)[C@H]3C[C@H](O)[C@]12C; Lithocholoyl = C[C@H](CCC(=O)*)[C@H]1CC[C@H]2[C@@H]3CC[C@@H]4C[C@H](O)CC[C@]4(C)[C@H]3CC[C@]12C; Adp = aminoethyldibenzofuranylpropanoic acid, O=C(CCc1cccc2c1oc1c(CCN[*:1])cccc12)[*:2]; iminobiotinyl = N=C1N[C@H]2[C@H](CS[C@H]2CCCCC(=O)*)N1; Tyr(3-I) = N[C@@H](Cc1ccc(O)c(I)c1)C(=O)O; FICO = 5-(and 6-)-carboxyfluoresceinyl; NMeL = CN[C@@H](CC(C)C)C(=O)O; NMeV = CN[C@H](C(=O)O)C(C)C; NANA = N-acetyl neuraminyl; Boc = CC(C)(C)OC(=O)*

target: natural β-amyloid peptide β-AP1-40 (human); experiment: cell-based or functional assay
Sequence (peptide, as listed by the source): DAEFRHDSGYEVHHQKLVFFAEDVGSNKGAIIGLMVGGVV

| Binder | % Inhibition of Plateau; nucleation assay; 100 mole % [%] | Fold Increase in Lag Time; nucleation assay; 100 mole % [fold] |
| --- | --- | --- |
| Cholyl-KLVF-NH2 (SMILES CC(C)C[C@H](NC(=O)[C@H](CCCCN)NC(=O)CC[C@@H](C)[C@H]1CC[C@H]2[C@@H]3[C@H](O)C[C@@H]4C[C@H](O)CC[C@]4(C)[C@H]3C[C@H](O)[C@]12C)C(=O)N[C@H](C(=O)N[C@@H](Cc1ccccc1)C(N)=O)C(C)C) [cholyl-Aβ16-19-amide (PPI-321 as printed in Table IV)] | ~0 | 1.2 |

target: natural β-amyloid peptide β-AP1-40 (human); experiment: cell-based or functional assay; remark: another data set of the same source

| Binder | % Inhibition of Plateau; nucleation assay; 100 mole % [%] | Fold Increase in Lag Time; nucleation assay; 100 mole % [fold] |
| --- | --- | --- |
| Cholyl-EVHHQKLVFFAEDVG [cholyl-Aβ11-25] | ~0 | 1.5 |
| {NANA}-AEDVGSNKGAIIGLM [NANA-Aβ21-35] | 53 | ~1 |
| iminobiotinyl-DAEFRHDSGYEVHHQ [iminobiotinyl-Aβ1-15] | ~0 | 1.2 |
| {NANA}-HDSGYEVHHQKLVFF [NANA-Aβ6-20] | 64 | 1.3 |
| iminobiotinyl-EVHHQKLVFFAEDVG [iminobiotinyl-Aβ11-25] | 40 | 1.2 |
| Cholyl-DAEFRHDSGYEVHHQ [cholyl-Aβ1-15] | 100 | > 4.5 |
| iminobiotinyl-AEDVGSNKGAIIGLM [iminobiotinyl-Aβ21-35] | 66 | ~1 |
| {FICO}-HDSGYEVHHQKLVFF [FICO-Aβ6-20] | ~0 | 1.9 |
| Cholyl-AEDVGSNKGAIIGLM [cholyl-Aβ21-35] | 51 | 1.6 |
| iminobiotinyl-SNKGAIIGLMVGGVV [iminobiotinyl-Aβ26-40] | ~0 | 2.3 |
| iminobiotinyl-KLVFFAEDVGSNKGA [iminobiotinyl-Aβ16-30] | 55 | 1.2 |
| {NANA}-SNKGAIIGLMVGGVV [NANA-Aβ26-40] | ~0 | 1.3 |
| {FICO}-DAEFRHDSGYEVHHQ [FICO-Aβ1-15] | 30 | ~1 |
| iminobiotinyl-HDSGYEVHHQKLVFF [iminobiotinyl-Aβ6-20] | 44 | 1.6 |
| {FICO}-KLVFFAEDVGSNKGA [FICO-Aβ16-30] | 59 | 1.6 |
| Cholyl-SNKGAIIGLMVGGVV [cholyl-Aβ26-40] | 87 | > 4.5 |
| {NANA}-DAEFRHDSGYEVHHQ [NANA-Aβ1-15] | ~0 | ~1 |
| {FICO}-AEDVGSNKGAIIGLM [FICO-Aβ21-35] | 25 | 1.2 |
| {NANA}-KLVFFAEDVGSNKGA [NANA-Aβ16-30] | ~0 | ~1 |
| Cholyl-KLVFFAEDVGSNKGA [cholyl-Aβ16-30] | 100 | > 4.5 |

target: natural β-amyloid peptide β-AP1-40 (human); experiment: cell-based or functional assay; remark: another data set of the same source

| Binder | % Iext'n; seeded extension assay; 25 mole % [%] | % Inucl'n; nucleation assay; 100 mole % [%] | ΔLag; nucleation assay; 100 mole % [ratio] |
| --- | --- | --- | --- |
| Deoxycholoyl-LVFFA-OH [DeoxyCA-LVFFA-oh] | 82 | -114 | 3 |
| H-DDIII[NMeV]DLL[Adp]HQKLVFF-OH (SMILES CC[C@H](C)[C@H](NC(=O)[C@H](CC(=O)O)NC(=O)[C@@H](N)CC(=O)O)C(=O)N[C@H](C(=O)N[C@H](C(=O)N(C)[C@H](C(=O)N[C@@H](CC(=O)O)C(=O)N[C@@H](CC(C)C)C(=O)N[C@@H](CC(C)C)C(=O)NCCc1cccc2c1oc1c(CCC(=O)N[C@@H](Cc3c[nH]cn3)C(=O)N[C@@H](CCC(N)=O)C(=O)N[C@@H](CCCCN)C(=O)N[C@@H](CC(C)C)C(=O)N[C@H](C(=O)N[C@@H](Cc3ccccc3)C(=O)N[C@@H](Cc3ccccc3)C(=O)O)C(C)C)cccc12)C(C)C)[C@@H](C)CC)[C@@H](C)CC) [h-DDIII(N-Me-Val)DLL(Adp)-HQKLVFF-oh] | 0 | -75 | 1.4 |
| Cholyl-Phe-Phe-Val-OH (SMILES CC(C)[C@H](NC(=O)[C@H](Cc1ccccc1)NC(=O)[C@H](Cc1ccccc1)NC(=O)CC[C@@H](C)[C@H]1CC[C@H]2[C@@H]3[C@H](O)C[C@@H]4C[C@H](O)CC[C@]4(C)[C@H]3C[C@H](O)[C@]12C)C(=O)O) [CA-FFV-oh] | 7 | -33 | 2.2 |
| H-DDII[NMeL]VEH[Adp]LKLVFF-OH (SMILES CC[C@H](C)[C@H](NC(=O)[C@H](CC(=O)O)NC(=O)[C@@H](N)CC(=O)O)C(=O)N[C@H](C(=O)N(C)[C@@H](CC(C)C)C(=O)N[C@H](C(=O)N[C@@H](CCC(=O)O)C(=O)N[C@@H](Cc1c[nH]cn1)C(=O)NCCc1cccc2c1oc1c(CCC(=O)N[C@@H](CC(C)C)C(=O)N[C@@H](CCCCN)C(=O)N[C@@H](CC(C)C)C(=O)N[C@H](C(=O)N[C@@H](Cc3ccccc3)C(=O)N[C@@H](Cc3ccccc3)C(=O)O)C(C)C)cccc12)C(C)C)[C@@H](C)CC) [h-DDII(N-Me-Leu)VEH(Adp)-LKLVFF-oh] | 7 | -29 | 1.8 |
| Cholyl-FFVL-OH (SMILES CC(C)C[C@H](NC(=O)[C@@H](NC(=O)[C@H](Cc1ccccc1)NC(=O)[C@H](Cc1ccccc1)NC(=O)CC[C@@H](C)[C@H]1CC[C@H]2[C@@H]3[C@H](O)C[C@@H]4C[C@H](O)CC[C@]4(C)[C@H]3C[C@H](O)[C@]12C)C(C)C)C(=O)O) [CA-FFVL-oh] | 75 | 33 | 4.1 |
| Cholyl-[dL][dV][dF][dF][dA]-OH [CA-LVFFA-oh (all D amino acids)] | – | 27 | 2.8 |
| Cholyl-LVF[Tyr(3-I)]A-OH [CA-LVF(IY)A-oh] | – | 95 | > 5 |
| Cholyl-LVFAA-OH (SMILES CC(C)C[C@H](NC(=O)CC[C@@H](C)[C@H]1CC[C@H]2[C@@H]3[C@H](O)C[C@@H]4C[C@H](O)CC[C@]4(C)[C@H]3C[C@H](O)[C@]12C)C(=O)N[C@H](C(=O)N[C@@H](Cc1ccccc1)C(=O)N[C@@H](C)C(=O)N[C@@H](C)C(=O)O)C(C)C) [CA-LVFAA-oh] | – | 40 | 1.6 |
| Cholyl-Gly-Phe-Phe-OH (SMILES C[C@H](CCC(=O)NCC(=O)N[C@@H](Cc1ccccc1)C(=O)N[C@@H](Cc1ccccc1)C(=O)O)[C@H]1CC[C@H]2[C@@H]3[C@H](O)C[C@@H]4C[C@H](O)CC[C@]4(C)[C@H]3C[C@H](O)[C@]12C) [CA-GFF-oh] | – | 0 | 1 |
| Boc-LVFFA-OH [t-Boc-LVFFA-oh] | – | -5 | 3 |
| Lithocholoyl-LVFFA-OH [LithoCA-LVFFA-oh] | 0 | -229 | 2.8 |
| Cholyl-AVAFA-OH (SMILES CC(C)[C@H](NC(=O)[C@H](C)NC(=O)CC[C@@H](C)[C@H]1CC[C@H]2[C@@H]3[C@H](O)C[C@@H]4C[C@H](O)CC[C@]4(C)[C@H]3C[C@H](O)[C@]12C)C(=O)N[C@@H](C)C(=O)N[C@@H](Cc1ccccc1)C(=O)N[C@@H](C)C(=O)O) [CA-AVAFA-oh] | – | -15 | 1 |
